# Source: paper PMC3500403 (Developmental cell, 2012)
# B1: C. elegans SKA-1 microtubule binding domain (residues 118-243) (domain or fragment, UniProt Q9XWS0 118-243, looked up)
# chain: NDIRIVPQITDEEFKTIPKYQLGRLTLEMMNEIVSKMDDFLMKKSKILGKTNKQLTRSDREVLDNWRELEMKARKRLPTTLFFIETDIRPMLQDRLRPSFAKAIPCLRHIRRIREERCGPLTFYYP
# Target: taxol stabilized microtubules (UniProt Q6B856 1-445)
# Experiment: co-sedimentation
binder,measurement,value
B1,Kd,6.3 µM
